Patent US20040136959A1 (published 2004)

T1: human IL-13 receptor α2 chain (IL-13Rα2) (human, UniProt Q14627 27-380)
T1 construct: also called IL-13Rα2 chain; IL-13Rα chain
T1 sequence: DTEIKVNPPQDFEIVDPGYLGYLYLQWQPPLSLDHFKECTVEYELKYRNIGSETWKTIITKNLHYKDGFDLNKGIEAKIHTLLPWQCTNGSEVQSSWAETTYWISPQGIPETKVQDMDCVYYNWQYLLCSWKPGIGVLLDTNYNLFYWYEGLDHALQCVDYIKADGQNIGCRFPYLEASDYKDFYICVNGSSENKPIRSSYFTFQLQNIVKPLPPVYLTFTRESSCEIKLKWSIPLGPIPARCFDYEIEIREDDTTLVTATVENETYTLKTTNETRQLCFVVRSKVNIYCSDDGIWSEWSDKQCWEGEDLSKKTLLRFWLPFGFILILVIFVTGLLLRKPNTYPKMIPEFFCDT


Assays:
[1] = biological target: IL-13 receptor (IL-13R) as naturally present on the human cell lines (human); assay: cell-based or functional assay
[2] = biological target: human IL-13 receptor α2 chain (IL-13Rα2) (human) (UniProt Q14627); assay: cell-based or functional assay
[3] = biological target: T1, human IL-13 receptor α2 chain (IL-13Rα2); assay: 125I-IL-4 radioreceptor binding on SCCHN cells, vector control against IL-13Rα2 transfectants

Row | Molecule | IC50, inhibition of protein synthesis, A253 cells [1] [µg/mL] | IC50, inhibition of protein synthesis, Hep-2 cells [1] [µg/mL] | IC50, inhibition of protein synthesis, KB cells [1] [µg/mL] | IC50, inhibition of protein synthesis, KCCL871 cells [1] [µg/mL] | IC50, inhibition of protein synthesis, KCCT871 cells [1] [µg/mL] | IC50, inhibition of protein synthesis, KCCT891 cells [1] [µg/mL] | IC50, inhibition of protein synthesis, KCCTCM901 cells [1] [µg/mL] | IC50, inhibition of protein synthesis, RPMI2650 cells [1] [µg/mL] | IC50, inhibition of protein synthesis, YCU891 cells [1] [µg/mL] | IC50, inhibition of protein synthesis, YCUM862 cells [1] [µg/mL] | IC50, inhibition of protein synthesis, YCUT891 cells [1] [µg/mL] | IC50, inhibition of protein synthesis, YCUT892 cells [1] [µg/mL] | IC50, inhibition of protein synthesis, other 14 SCCHN cell lines [1] [µg/mL] | IC50, inhibition of protein synthesis, HN12 cells (IL-13Rα2-positive) [2] [µg/mL] | IC50, inhibition of protein synthesis, IL-13Rα2-positive SCCHN cell lines [2] [µg/mL] | IC50, inhibition of protein synthesis, KCCTC873 cells (IL-13Rα2-positive) [2] [µg/mL] | IC50, inhibition of protein synthesis, YCUM911 cells (IL-13Rα2-positive) [2] [µg/mL] | binding result [3]
1 | IL-13-PE38 (from UniProt P35225 25-146; P11439 278-389; P11439 406-638) | 0.155 | 0.2 | 0.1 | 0.185 | 0.275 | > 1 | 0.11 | > 1 | 0.5 | > 1 | > 1 | > 1 | 0.1 to 1 | 0.0075 | < 0.01 | 0.008 | 0.004 | –
2 | Recombinant human IL-4 (ligand, UniProt P05112 25-153, looked up, also called unlabeled IL-4) HKCDITLQEIIKTLNSLTEQKTLCTELTVTDIFAASKNTTEKETFCRAATVLRQFYSHHEKDTRCLGATAQQFHRHKQLIRFLKRLDRNLWGLAGLNSCPVKEANQSTLENFLERLKTIMREKYSKCSS | – | – | – | – | – | – | – | – | – | – | – | – | – | – | – | – | – | no binding
